Key:
[1] = Cleavage of MeP-dR by PNPs of various origins (HPLC); assay type: biochemical; conditions: 100 μM MeP-dR, enzymes of various purities
[2] = Cleavage of F-araA by PNPs of various origins (HPLC); assay type: biochemical
[3] = tested on: tumors; experiment: In vivo efficacy experiments, tm-PNP versus M65V

B1: tm-PNP: tailed mutant E. coli PNP, 30 amino acid tail in place of the terminal glutamic acid (SEQ ID NO: 8) (protein, listed as Trichomonas vaginalis)
chain: MATPHINAEMGDFADVVLMPGDPLRAKYIAETFLEDAREVNNVRGMLGFTGTYKGRKISVMGHGMGIPSCSIYTKELITDFGVKKIIRVGSCGAVLPHVKLRDVVIGMGACTDSKVNRIRFKDHDFAAIADFDMVRNAVDAAKALGIDARVGNLFSADLFYSPDGEMFDVMEKYGILGVEMEAAGIYGVAAEFGAKALTICTVSDHIRTHEQTTAAERQTTFNDMIKIALESVLLGDKGKRPRGSSRVDLQACKLGIFVKEPYFCGVT
- MeP-dR rate of cleavage [1]: 948 nmol/mg/h
- MeP-dR/F-araA cleavage ratio [2]: 198
- F-araA rate of cleavage ([2]; 100 μM F-araA, enzymes of various purities): 4.8 nmol/mg/h
- selectivity of cleavage of F-araA relative to wild-type E. coli PNP ([2]; from MeP-dR/F-araA ratios 198 vs 422): 2.3 fold
- antitumoral activity relative to M65V [3]: considerably greater antitumoral activity
